Earlier results on one substance are cited in article PMC8508339.

Data set [1] concerns the target cholecystokinin (Homo sapiens) (UniProt P06307).
In another data set the target is gastrin (Homo sapiens) (UniProt P01350).
Chain of UniProt P01350 (P01350 whole entry, looked up): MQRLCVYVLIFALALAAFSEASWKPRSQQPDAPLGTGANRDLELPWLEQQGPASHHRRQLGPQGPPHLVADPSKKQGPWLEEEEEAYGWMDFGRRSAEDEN

Chain of UniProt P06307 (P06307 whole entry, looked up): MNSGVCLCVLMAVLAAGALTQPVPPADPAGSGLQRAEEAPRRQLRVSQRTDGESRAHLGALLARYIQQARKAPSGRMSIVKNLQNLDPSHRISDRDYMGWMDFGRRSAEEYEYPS

As a reminder, the Kd is the concentration at which binding is half-saturated. For the substance “CCK-B receptor (CCK2) (from UniProt P32239)”, the equilibrium dissociation constant (Kd) (in data set [1]; with gastrin (Homo sapiens)) was 1 nM in each case.
